As a reminder, the Kd is the concentration at which binding is half-saturated. The term koff denotes a measure of how fast the partners let go of each other. As a reminder, the kon is a measure of how fast the partners come together.

This is an account of results in US20140271458A1 (AbbVie / Abbott, published 2014).

The target in test [1] is T1, Recombinant Human IL-17 (human, UniProt Q16552 20-155, limits assumed).
T1 sequence (looked up): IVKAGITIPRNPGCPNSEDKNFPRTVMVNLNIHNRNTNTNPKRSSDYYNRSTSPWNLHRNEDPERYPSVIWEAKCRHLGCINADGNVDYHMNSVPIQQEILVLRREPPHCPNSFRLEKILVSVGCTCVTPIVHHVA
As to the kind of experiment: cell-based or functional assay.

Test [2] addresses T1, Recombinant Human IL-17. The experiment in a line: SPR, Biacore T200, antibody captured, antigen 0.8-100 nM, 25 C. As to the method:
(§1) The BIACORE assay (GE, Healthcare Piscataway, N.J.) determined the affinity of antibodies or DVD-Ig proteins with kinetic measurements of on-rate and off-rate constants. Binding of antibodies or DVD-Ig proteins to a target antigen (for example, a purified recombinant target antigen) was determined by surface plasmon resonance-based measurements with a Biacore T200 using running HBS-EP+buffer from GE Healthcare at 25° C. AN chemicals were obtained from GE Healthcare unless otherwise described. For example, approximately 5000 RU of goat anti-mouse IgG, (Fcγ), fragment specific polyclonal antibody (Pierce Biotechnology Inc, Rockford, Ill.) diluted in 10 mM sodium acetate (pH 4.5) was directly immobilized across a CM5 research grade biosensor chip using a standard amine coupling kit according to manufacturer's instructions. Unreacted moieties on the biosensor surface were blocked with ethanolamine. Modified carboxymethyl dextran surface in flowcell 1 was used as a reference surface. Rate constants were derived by making kinetic binding measurements at different antigen concentrations ranging from 0.8-100 nM. Binding was recorded as a function of time and kinetic rate constants were calculated. In this assay, association rate was evaluated for 5 minutes and dissociation was monitored for 10 minutes. For kinetic screening analysis, rate equations derived from the 1:1 binding model were fitted simultaneously to association and dissociation phases of all injections (using global fit analysis with Rmax fit locally to account for capture variations) with the use of Biaevaluation software. Purified antibodies or DVD-Ig proteins were diluted in HEPES-buffered saline for capture across goat anti-mouse IgG specific reaction surfaces. Antibodies or DVD-Ig proteins to be captured as a ligand were injected over reaction matrices at a flow rate of 5 μl/minute. The association and dissociation rate constants, kₒₙ (M⁻¹s⁻¹) and koff (s⁻¹) were determined under a continuous flow rate of 50 μl/minute. Rate constants were derived by making kinetic binding measurements at different antigen concentrations ranging from 0.8-100 nM. Binding was recorded as a function of time and kinetic rate constants were calculated. In this assay, association rate was evaluated for 5 minutes and dissociation was monitored for 10 minutes.
For orientation: In SPR one partner is held on a chip, and binding of the other changes the refractive index at the surface.

The target of test [3] is T2, Recombinant Human IL-1b (human, UniProt P01584 117-269). The experiment in a line: cell-based or functional assay.
Test [4] concerns the target T2, Recombinant Human IL-1b. The experiment in a line: SPR, Biacore T200, DVD-Ig captured, antigen 0.8-100 nM, 25 C. As to the method: as §1
Test [5] deals with T1, Recombinant Human IL-17. The description is as above. The method, then: as §1
Test [6] concerns the target T2, Recombinant Human IL-1b. The experiment in a line: SPR, Biacore T200, antibody captured, antigen 0.8-100 nM, 25 C. The method, then: as §1

B1: AB420 (antibody, V domains shown)
VH: EVQLVQSGAEVKKPGSSVKVSCKASGGSFGGYGIGWVRQAPGQGLEWMGGITPFFGFADYAQKFQGRVTITADESTTTAYMELSGLTSDDTAVYYCARDPNEFWGGYYSTHDFDSWGQGTTVTVSS
VL: EIVLTQSPDFQSVTPKEKVTITCRASQDIGSELHWYQQKPDQPPKLLIKYASHSTSGVPSRFSGSGSGTDFTLTINGLEAEDAGTYYCHQTDSLPYTFGPGTKVDIKR
As for B1, the “C-Terminal VD IL17 Neutralization Assay (IC50 nM)” value in the test with Recombinant Human IL-17 [1] is 0.048 nM.

B2: AB461 (antibody, V domains shown)
VH: EVQLVQSGAEVKKPGESVKISCKASGGSFRSYGISWVRQAPGQGLEWMGGITHFFGITDYAQKFQGRVTITADESTTTAYMELSGLTSDDTAVYYCAREPNDFWGGYYDTHDFDSWGQGTTVTVSS
VL: EIVLTQSPDFQSVTPKEKVTITCRASQNIGSELHWYQQKPDQSPKLLIKYASHSISGVPSRFSGSGSGTDFTLTINGLEAEDAATYYCHQSDTLPHTFGQGTKVDIKR
notes: Parent anti-IL-17 antibody; also called AB461VH
With B2, in the test with Recombinant Human IL-17 [2], the Kd was 0.00086 nM, the koff was found to be 5.3e-06 s⁻¹ and the on-rate (kon) was 6.2e+06 M⁻¹ s⁻¹.

B3: AB273 (antibody, V domains shown)
VH: EVQLVQSGAEVKKPGSSVKVSCKASGYTFTDYEIHWVRQAPGQGLEWMGVNDPESGGTFYNQKFDGRVTLTADESTSTAYMELSSLRSEDTAVYYCTRYSKWDSFDGMDYWGQGTTVTVSS
VL: DIQMTQSPSSLSASVGDRVTITCRASSGIISYIDWFQQKPGKAPKRLIYATFDLASGVPSRFSGSGSGTDYTLTISSLQPEDFATYYCRQVGSYPETFGQGTKLEIKR
notes: Parent anti-IL-17 antibody; also called AB273VH
For B3, in the test with Recombinant Human IL-17 [2], the Kd came to 0.0046 nM, the off-rate constant (koff) was determined as 1.3e-05 s⁻¹ and the on-rate (kon) is 2.7e+06 M⁻¹ s⁻¹. Also, the “C-Terminal VD IL17 Neutralization Assay (IC50 nM)” value in the test with Recombinant Human IL-17 [1] worked out at 0.031 nM.

B4: DVD3415 (bispecific antibody, human IgG1)
heavy: EVQLVESGGGVVQPGRSLRLSCSASGFIFSRYDMSWVRQAPGKGLEWVAYISHGGAGTYYPDSVKGRFTISRDNSKNTLFLQMDSLRPEDTGVYFCARGGVTKGYFDVWGQGTPVTVSSGGGGSGGGGSEVQLVQSGAEVKKPGSSVKVSCKASGGSFGGYGIGWVRQAPGQGLEWMGGITPFFGFADYAQKFQGRVTITADESTTTAYMELSGLTSDDTAVYYCARDPNEFWGGYYSTHDFDSWGQGTTVTVSSASTKGPSVFPLAPSSKSTSGGTAALGCLVKDYFPEPVTVSWNSGALTSGVHTFPAVLQSSGLYSLSSVVTVPSSSLGTQTYICNVNHKPSNTKVDKKVEPKSCDKTHTCPPCPAPEAAGGPSVFLPPPKPKDTLMISRTPEVTCVVVDVSHEDPEVKFNWYVDGVEVHNAKTKPREEQYNSTYRVVSVLTVLHQDWLNGKEYKCKVSNKALPAPIEKTISKAKGQPREPQVYTLPPSREEMTKNQVSLTCLVKGFYPSDIAVEWESNGQPENNYKTTPPVLDSDGSFFLYSKLTVDKSRWQQGNVFSCSVMHEALHNHYTQKSLSLSPGK
light: DIQMTQSPSSLSASVGDRVTITCRASGNIHNYLTWYQQTPGKAPKLLIYNAKTLADGVPSRFSGSGSGTDYTFTISSLQPEDIATYYCQHFWSIPYTFGQGTKLQITRGGSGGGGSGEIVLTQSPDFQSVTPKEKVTITCRASQDIGSELHWYQQKPDQPPKLLIKYASHSTSGVPSRFSGSGSGTDFTLTINGLEAEDAGTYYCHQTDSLPYTFGPGTKVDIKRTVAAPSVFIFPPSDEQLKSGTASVVCLLNNFYPREAKVQWKVDNALQSGNSQESVTEQDSKDSTYSLSSTLTLSKADYEKHKVYACEVTHQGLSSPVTKSFNRGEC
notes: human kappa; also called DVD3415H; DVD3415L
Turning to B4, in the test with Recombinant Human IL-1b [3], the “N-Terminal VD IL-1β Neutralization Assay (IC50 nM)” value was determined as 0.027 nM. In the test with Recombinant Human IL-1b [4], the Kd amounted to 0.051 nM, the koff was determined as 3.8e-05 s⁻¹ and the kon turned out to be 740000 M⁻¹ s⁻¹. Further, in the test with Recombinant Human IL-17 [5], the equilibrium dissociation constant (Kd) was < 0.0048 nM, the koff is < 1e-06 s⁻¹ and the kon worked out at 210000 M⁻¹ s⁻¹. Besides, in the test with Recombinant Human IL-17 [1], the “C-Terminal VD IL17 Neutralization Assay (IC50 nM)” value is 0.091 nM.

B5: DVD3418 (bispecific antibody, human IgG1)
heavy: EVQLVESGGGVVQPGRSLRLSCSASGFIFSRYDMSWVRQAPGKGLEWVAYISHGGAGTYYPDSVKGRFTISRDNSKNTLFLQMDSLRAEDTAVYYCARGGVYKGYFDVWGQGTPVTVSSGGGGSGGGGSEVQLVQSGAEVKKPGSSVKVSCKASGGSFGGYGIGWVRQAPGQGLEWMGGITPFFGFADYAQKFQGRVTITADESTTTAYMELSGLTSDDTAVYYCARDPNEFWGGYYSTHDFDSWGQGTTVTVSSASTKGPSVFPLAPSSKSTSGGTAALGCLVKDYFPEPVTVSWNSGALTSGVHTFPAVLQSSGLYSLSSVVTVPSSSLGTQTYICNVNHKPSNTKVDKKVEPKSCDKTHTCPPCPAPEAAGGPSVFLPPPKPKDTLMISRTPEVTCVVVDVSHEDPEVKFNWYVDGVEVHNAKTKPREEQYNSTYRVVSVLTVLHQDWLNGKEYKCKVSNKALPAPIEKTISKAKGQPREPQVYTLPPSREEMTKNQVSLTCLVKGFYPSDIAVEWESNGQPENNYKTTPPVLDSDGSFFLYSKLTVDKSRWQQGNVFSCSVMHEALHNHYTQKSLSLSPGK
light: DIQMTQSPSSLSASVGDRVTITCRASGNIHNYLTWYQQTPGKAPKLLIYNAKTLADGVPSRFSGSGSGTDYTFTISSLQPEDIATYYCQHFWSIPYTFGQGTKLQITRGGSGGGGSGEIVLTQSPDFQSVTPKEKVTITCRASQDIGSELHWYQQKPDQPPKLLIKYASHSTSGVPSRFSGSGSGTDFTLTINGLEAEDAGTYYCHQTDSLPYTFGPGTKVDIKRTVAAPSVFIFPPSDEQLKSGTASVVCLLNNFYPREAKVQWKVDNALQSGNSQESVTEQDSKDSTYSLSSTLTLSKADYEKHKVYACEVTHQGLSSPVTKSFNRGEC
notes: human kappa; also called DVD3418H; DVD3418L
With B5, in the test with Recombinant Human IL-1b [3], the “N-Terminal VD IL-1β Neutralization Assay (IC50 nM)” value worked out at 0.018 nM. In the test with Recombinant Human IL-1b [4], the Kd stood at 0.034 nM, the koff came to 1.8e-05 s⁻¹ and the kon was determined as 540000 M⁻¹ s⁻¹. Further, in the test with Recombinant Human IL-17 [5], the dissociation constant (Kd) was < 0.0048 nM, the koff was < 1e-06 s⁻¹ and the kon is 210000 M⁻¹ s⁻¹. In addition, in the test with Recombinant Human IL-17 [1], the “C-Terminal VD IL17 Neutralization Assay (IC50 nM)” value turned out to be 0.068 nM.

B6: AB270 (antibody, V domains shown)
VH: EVQLQESGPGLVKPSETLSLTCTVSGFSLSDYGVSWIRQPPGKGLEWLGLIWGGGDTYYNSPLKSRLTISKDNSKSQVSLKLSSVTAADTAVYYCAKQRTLWGYDLYGMDYWGQGTLVTVSS
VL: DTQVTQSPSSLSASVGDRVTITCITSTDIDVDMNWYQQKPGKPPKLLISQGNTLRPGVPSRFSSSGSGTDFTFTISSLQPEDFATYYCLQSDNLPLTFGQGTKLEIKR
notes: Parent anti-IL-1β antibody; also called AB270VH
As for B6, in the test with Recombinant Human IL-1b [6], the Kd came out at 0.08 nM, the koff was 0.00053 s⁻¹ and the kon was 6.6e+06 M⁻¹ s⁻¹. In the test with Recombinant Human IL-1b [3], the “N-Terminal VD IL-1β Neutralization Assay (IC50 nM)” value worked out at 0.239 nM.

B7: AB272 (antibody, V domains shown)
VH: EVQLVESGGGLVQPGGSLRLSCAVSGFTLSDYGVSWIRQAPGKGLEWLGLIWGGGDTYYNSPLKSRLTISKDNSKSTVYLQMNSLRAEDTAVYYCAKQRTLWGYDLYGMDYWGQGTLVTVSS
VL: ETTVTQSPSSLSASVGDRVTITCITSTDIDVDMNWYQQKPGKPPKLLISQGNTLRPGVPSRFSSSGSGTDFTFTISSLQPEDFATYYCLQSDNLPLTFGQGTKLEIKR
notes: Parent anti-IL-1β antibody; also called AB272VH
In the case of B7, in the test with Recombinant Human IL-1b [6], the Kd amounted to 0.14 nM, the koff is 0.00056 s⁻¹ and the kon was found to be 4e+06 M⁻¹ s⁻¹. Also, the “N-Terminal VD IL-1β Neutralization Assay (IC50 nM)” value in the test with Recombinant Human IL-1b [3] was determined as 0.424 nM.

B8: AB271 (antibody, V domains shown)
VH: EVQLQESGPGLVKPSETLSLTCTVSGFSLSDYGVSWIRQPPGKGLEWLGLIWGGGDTYYNSPLKSRLTISKDNSKSQVSLKLSSVTAADTAVYYCAKQRTLWGYDLYGMDYWGQGTLVTVSS
VL: DTVVTQSPAFLSVTPGEKVTITCITSTDIDVDMNWYQQKPDQPPKLLISQGNTLRPGVPSRFSSSGSGTDFTFTISSLEAEDAATYYCLQSDNLPLTFGQGTKLEIKR
notes: Parent anti-IL-1β antibody; also called AB271VH
As to B8, in the test with Recombinant Human IL-1b [6], the Kd was determined as 0.11 nM, the off-rate (koff) stood at 0.00051 s⁻¹ and the kon was 4.6e+06 M⁻¹ s⁻¹. For the same molecule, in the test with Recombinant Human IL-1b [3], the “N-Terminal VD IL-1β Neutralization Assay (IC50 nM)” value turned out to be 0.301 nM.
